Measurements published in patent publication US20170029474A1 (OSAKA UNIVERSITY, published 2017).
Read-outs that look alike come from different tables or passages of the source.

Tests used:
CRM197 [1] = molecular target: T1, CRM197 (Corynebacterium diphtheriae, UniProt P00587 26-560); assay: SPR, Biacore T200, His-tagged HB-EGF captured on NTA chip
CRM197 [2] = molecular target: T1, CRM197; assay: as above; remark: listed apart in the source

B1: C-terminal His-tagged HB-EGF lacking the heparin-binding domain (ligand)
chain: DLQEADLDLLRVTLSSKPQALATPNKEEHGDPCLRKYKDFCIHGECKYVKELRAPSCICHPGYHGERCHGLSLP
notes: Captured on a Ni2+ NTA sensor chip for Biacore; also called C-terminal His-tagged recombinant HB-EGF; Δ••-EGF-His
Ka (CRM197 [1]): 9.8e+08 M⁻¹ | Ka (CRM197 [2]): 9.22e+08 M⁻¹
